Measurements: patent US20200181261A1 (Bayer, published 2020)

T1: Macaca fascicularis CEACAM6-Domain 1-His (expressed in E. coli) (Macaca fascicularis)
T1 construct: entry includes the His tag; also called TPP-2453; Recombinant single domain 1 of Macaca fascicularis CEACAM6
T1 chain: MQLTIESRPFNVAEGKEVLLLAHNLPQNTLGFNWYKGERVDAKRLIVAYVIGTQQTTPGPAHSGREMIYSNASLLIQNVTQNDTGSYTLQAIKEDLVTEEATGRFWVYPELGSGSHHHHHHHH

T2: Human CEACAM6-Domain 1-His (expressed in E. coli), wild-type (human)
T2 construct: entry includes the His tag; also called hDOM1
T2 chain: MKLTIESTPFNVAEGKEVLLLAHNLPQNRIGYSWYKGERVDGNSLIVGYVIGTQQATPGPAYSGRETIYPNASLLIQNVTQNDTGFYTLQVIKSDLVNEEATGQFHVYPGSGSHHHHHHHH

T3: human CEACAM19, full-length, on transfected HeLa cells (human, UniProt Q7Z692 33-300)
T3 construct: also called TPP-4186; HeLa human CEACAM19
T3 sequence: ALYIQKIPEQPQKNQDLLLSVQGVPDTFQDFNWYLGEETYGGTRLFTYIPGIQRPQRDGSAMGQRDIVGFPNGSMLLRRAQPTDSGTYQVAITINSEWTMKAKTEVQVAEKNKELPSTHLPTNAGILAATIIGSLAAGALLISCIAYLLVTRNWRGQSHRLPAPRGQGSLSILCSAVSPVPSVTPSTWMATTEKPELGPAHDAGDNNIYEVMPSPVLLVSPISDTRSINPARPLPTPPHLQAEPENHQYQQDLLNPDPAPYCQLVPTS

T4: human CEACAM8, full-length, on transfected HeLa cells (human, UniProt P31997 35-320)
T4 construct: also called TPP-4190; HeLa human CEACAM8
T4 sequence: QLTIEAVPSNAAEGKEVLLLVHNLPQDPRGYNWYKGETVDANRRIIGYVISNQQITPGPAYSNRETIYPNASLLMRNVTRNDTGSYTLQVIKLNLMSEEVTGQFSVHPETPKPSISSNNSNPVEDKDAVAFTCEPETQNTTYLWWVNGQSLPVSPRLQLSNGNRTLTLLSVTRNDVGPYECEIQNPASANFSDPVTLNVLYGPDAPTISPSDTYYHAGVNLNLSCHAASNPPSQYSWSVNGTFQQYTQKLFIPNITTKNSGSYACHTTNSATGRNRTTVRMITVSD

T5: human CEACAM1, extracellular (mature form), R&D Systems 2244-CM (human, UniProt P13688 35-428)
T5 construct: used biotinylated in some assays; also called TPP-1437; hC1
T5 sequence: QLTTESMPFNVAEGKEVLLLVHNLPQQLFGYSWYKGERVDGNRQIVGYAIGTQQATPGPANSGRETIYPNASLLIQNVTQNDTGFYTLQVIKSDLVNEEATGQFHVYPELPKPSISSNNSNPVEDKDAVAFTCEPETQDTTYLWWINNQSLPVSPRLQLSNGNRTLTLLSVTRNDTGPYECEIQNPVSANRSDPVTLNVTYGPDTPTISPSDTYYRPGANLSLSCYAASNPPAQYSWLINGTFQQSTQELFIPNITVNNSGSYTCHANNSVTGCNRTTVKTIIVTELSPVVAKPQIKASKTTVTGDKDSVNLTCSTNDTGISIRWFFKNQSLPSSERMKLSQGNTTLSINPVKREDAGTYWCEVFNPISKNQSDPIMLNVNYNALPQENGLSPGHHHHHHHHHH


Key:
[1] = target: T1, Macaca fascicularis CEACAM6-Domain …; test: SPR, antibody captured, antigen as analyte
Procedure: (§1) Surface plasmon resonance (SPR) experiments for quantitative binding analyses were performed either using a Biacore T100, Biacore T200 or a Biacore 4000 instrument (GE Healthcare Biacore, Inc.) equipped with Series S Sensor Chips CM5 (GE Healthcare Biacore, Inc.). Binding assays were carried out at 25° C. with assay buffer HBS-EP+(10 mM HEPES pH 7.4, 150 mM NaCl, 3 mM EDTA, 0.05% Surfactant P20). Antibodies were captured with an anti-hIgG capture antibody covalently immobilized to the chip surface via amine coupling chemistry. Reagents for amine coupling (1-ethyl-3-(3-dimethylaminopropyl) carbodiimide hydrochloride (EDC), N-hydroxysuccinimide (NHS), ethanolamine-HCl pH 8.5) were used from the Amine Coupling Kit (GE Healthcare, product code BR-1000-50). Anti-hIgG, anti-mIgG capture antibodies and immobilization buffer (10 mM sodium acetate pH 5.0) were used from the Human Antibody Capture Kit (GE Healthcare, BR-1008-39) and the Mouse Antibody Capture Kit (GE Healthcare, BR-1008-38), respectively. The sensor chip surface was activated with a freshly prepared solution of 0.2 M EDC and 0.05 M NHS passed over the chip surface for 420 s at a flow rate of 10 μl/min, followed by an injection of anti-hIgG or anti-mIgG capture antibody (dissolved to 25 μg/ml in immobilization buffer) for 180 s at a flow rate of […]. Excess of activated groups were blocked with a 1 molar solution of ethanolamine injected at a flow rate of 10 μl/min for 420 s.
(§2) CEACAM antigens were used as analyte to determine KD values. Antibodies were captured for 20 s at a flow rate of 10 μl/min prior to each analyte injection.

[2] = target: T2, Human CEACAM6-Domain 1-His (expressed …); test: SPR, antibody captured, antigen as analyte
Procedure: as §1, §2

[3] = target: T3, human CEACAM19, full-length, on …; test: FACS, transfected HeLa cells
Summary of the method: (§3)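 Antibody binding to transfected HeLa cells was measured by FACS on a Canto II or FACS Array instrument. For half maximal binding (EC₅₀), primary antibodies were titrated from 0.1 nM to 100 nM. Median fluorescence intensity was plotted against log concentration, and curves were fitted in Graph Pad prism. Cells had been released with EDTA dissociation buffer and stained at 4° C.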

[4] = target: T4, human CEACAM8, full-length, on …; test: FACS, transfected HeLa cells
Summary of the method: as §3

[5] = target: T5, human CEACAM1, extracellular (mature …); test: SPR, antibody captured, antigen as analyte

Kd [1]	Kd [2]	binding result [3]	binding result [4]	binding result [5]	Binder
5.2 nM	5.1 nM	no binding (tested: 5 µg/ml)	no binding (tested: 5 µg/ml)	no binding (tested: 200 nM)	TPP-3820 (antibody, human IgG2, kappa, V domains shown, humanized from TPP-3187, human IgG2; also called 3187HU1-hIgG2Kappa) VH: QVTLRESGPALVKPTQTLTLTCTFSGFSLTTYGIGVGWIRQPPGKGLEWLAHIWWNDNKYYSTSLKTRLTISKDTSKNQVVLTMTNMDPVDTATYYCARISLPYFDYWGQGTLVTVSS VL: DIQLTQSPSFLSASVGDRVTITCKASQNVGTAVAWYQQKPGKAPKLLIYSASNRYTGVPSRFSGSGSGTEFTLTISSLQPEDFATYYCQQYNNYPLTFGGGTKVEIKR
3.2 nM	3.7 nM	no binding (tested: 5 µg/ml)	no binding (tested: 5 µg/ml)	no binding (tested: 200 nM)	TPP-3714 (antibody, human IgG2, kappa, humanized from TPP-2971, human IgG2; also called TPP-2971HU2-hIgG2Kappa) heavy: QVTLRESGPALVKPTQTLTLTCTFSGFSLSTYGIGVGWIRQPPGKALEWLAHIWWNDNKYYSTSLKTRLTISKDTSKNQVVLTMTNMDPVDTATYYCARISLPYFDYWGQGTLVTVSSASTKGPSVFPLAPCSRSTSESTAALGCLVKDYFPEPVTVSWNSGALTSGVHTFPAVLQSSGLYSLSSVVTVPSSNFGTQTYTCNVDHKPSNTKVDKTVERKCCVECPPCPAPPVAGPSVFLFPPKPKDTLMISRTPEVTCVVVDVSHEDPEVQFNWYVDGVEVHNAKTKPREEQFNSTFRVVSVLTVVHQDWLNGKEYKCKVSNKGLPAPIEKTISKTKGQPREPQVYTLPPSREEMTKNQVSLTCLVKGFYPSDIAVEWESNGQPENNYKTTPPMLDSDGSFFLYSKLTVDKSRWQQGNVFSCSVMHEALHNHYTQKSLSLSPG light: DIQLTQSPSFLSASVGDRVTITCKASQNVGTAVAWYQQKPGKAPKLLIYSASNRYTGVPSRFSGSGSGTEFTLTISSLQPEDFATYYCQQYSSYPLTFGGGTKVEIKRTVAAPSVFIFPPSDEQLKSGTASVVCLLNNFYPREAKVQWKVDNALQSGNSQESVTEQDSKDSTYSLSSTLTLSKADYEKHKVYACEVTHQGLSSPVTKSFNRGEC
